From paper PMC9892613, “Thermodynamic analysis of an entropically driven, high-affinity nanobody-HIV p24 interaction” (Biophysical Journal, 2022) come the findings set out here.

The target of the experiment is T1, HIV-1 capsid protein p24 (His-p24) (HIV-1 group M subtype B, NY5/NL4-3 …, UniProt P12493).
T1 construct: capsid protein p24 of HIV-1, the cut product of the Gag polyprotein; amplified from the template pWISP98-85 (NIH ARP); also called HIV-1 p24; p24 antigen; source: E. coli BL21-Star(DE3)pLysS, pET3a-His-p24, purified in-house; not shown: His6-Cys, N-terminal, kept
The experiment is described as follows: BLI; in the same nanobody storage buffer (Fig. S5). Conditions: both partners purified.

B1: nanobody 48G11 (59H10 F93D) (VHH)
VHH: DVQLQESGGGLVQAGGSLRLSCAASGSISRFNAMGWWRQAPGKEREFVARIVKGFDPVLADSVKGRFTISIDSAENTLALQMNRLKPEDTAVYYCDAALDTAYWGQGTQVTVSS
notes: as the chain of m2 (59H10, PDB 5O2U chain B) with F93D; made by site-directed mutagenesis; Artificial variant of 59H10 with one changed residue; also called 48G11 (F93D)
Consider B1, for which the binding result is recorded as “no binding”.
